The chains are these.
B1: Ubiquitin-like protein ATG12B (Arabidopsis thaliana (Mouse-ear cress)), Q9LVK3 (parent)
chain: MATESPNSVQKIVVHLRATGGAPILKQSKFKVSGSDKFANVIDFLRRQLHSDSLFVYVNSAFSPNPDESVIDLYNNFGFDGKLVVNYACSMAWG
partner: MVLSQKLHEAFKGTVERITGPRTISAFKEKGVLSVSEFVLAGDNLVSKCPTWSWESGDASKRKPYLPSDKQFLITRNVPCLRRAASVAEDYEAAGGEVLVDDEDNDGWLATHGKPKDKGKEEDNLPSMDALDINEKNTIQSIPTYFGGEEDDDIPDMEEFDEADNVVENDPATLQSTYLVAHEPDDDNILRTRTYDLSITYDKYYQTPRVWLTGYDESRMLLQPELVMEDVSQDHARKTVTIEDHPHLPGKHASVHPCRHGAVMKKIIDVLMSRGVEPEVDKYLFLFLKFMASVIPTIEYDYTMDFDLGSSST

This note sets out measurements from IntAct's records for PubMed 23238393.

One assay covers variants of B1. Conditions: with atg3_arath ATG3, Q0WWQ1.
In the case of MATESPNSVQKIVVHLRATGGAPILKQSKFKVSGSDKFANVIDFLRRQLHSDSLFVYVNSAASPNPDESVIDLYNNFGFDGKLVVNYACSMAWG [F62A], the “effect of a mutation on the interaction” value was “decreasing interaction”.

The variants in another assay derive from B1. Conditions: with atg3_arath ATG3, Q0WWQ1. The source holds these as a separate data set.
With MATESPNSVQKIVVHLRATGGAPILKQSKFKVSGSDKFANVIDFLRRQLHSDSLFVAVNSAFSPNPDESVIDLYNNFGFDGKLVVNYACSMAWG [Y57A], the “effect of a mutation on the interaction” value is given as “decreasing interaction”.
